Eight molecules from patent US20240409634A1 (Janssen / Centocor, published 2024) can be followed below.

The assay concerns the target human CD33 on CD33-expressing THP-1 cells (human, UniProt P20138 18-364). Put plainly: cell-based or functional assay.

Numbering of substitutions follows the chain as printed.

Sequence of human CD33 on CD33-expressing THP-1 cells (P20138 18-364): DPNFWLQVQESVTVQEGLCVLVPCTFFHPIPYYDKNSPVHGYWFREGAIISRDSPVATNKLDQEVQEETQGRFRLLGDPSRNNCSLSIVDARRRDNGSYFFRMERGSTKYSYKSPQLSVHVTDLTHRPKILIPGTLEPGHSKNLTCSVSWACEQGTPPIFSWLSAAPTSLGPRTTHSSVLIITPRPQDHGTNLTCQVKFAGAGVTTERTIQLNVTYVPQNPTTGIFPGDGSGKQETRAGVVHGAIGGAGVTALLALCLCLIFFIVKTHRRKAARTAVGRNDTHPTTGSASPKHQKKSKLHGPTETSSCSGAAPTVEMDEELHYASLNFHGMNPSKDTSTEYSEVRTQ

B1: CD33 antibody JL3 combined with Vdelta2 antibody 5D3 (JL3x5D3), Fab (CD33) x VHH (Vδ2) Fc construct (bispecific antibody, human IgG1, lambda, L234A L235A)
heavy: QVQLQESGPGLVKPSETLSLTCSVSGGSIRNYYWSWIRQSAGKELEWFGHIFSTGHINYDSSLKSRVTMSVDTSNNQFSLKLRSVTAADTAVYYCARDNGAALFDFWGQGTLVTVSSASTKGPSVFPLAPSSKSTSGGTAALGCLVKDYFPEPVTVSWNSGALTSGVHTFPAVLQSSGLYSLSSVVTVPSSSLGTQTYICNVNHKPSNTKVDKKVEPKSCDKTHTCPPCPAPEAAGGPSVFLFPPKPKDTLMISRTPEVTCVVVSVSHEDPEVKFNWYVDGVEVHNAKTKPREEQYNSTYRVVSVLTVLHQDWLNGKEYKCKVSNKALPAPIEKTISKAKGQPREPQVYTLPPSREEMTKNQVSLSCAVKGFYPSDIAVEWESNGQPENNYKTTPPVLDSDGSFFLVSKLTVDKSRWQQGNVFSCSVMHEALHNRFTQKSLSLSPGK
light: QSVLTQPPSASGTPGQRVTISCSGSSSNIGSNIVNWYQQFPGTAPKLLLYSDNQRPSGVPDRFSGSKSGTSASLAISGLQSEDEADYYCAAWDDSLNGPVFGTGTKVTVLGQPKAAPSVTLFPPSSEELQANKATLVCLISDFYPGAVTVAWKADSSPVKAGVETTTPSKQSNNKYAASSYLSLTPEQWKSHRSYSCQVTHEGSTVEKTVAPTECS
chain: EVQLVESGGGLVQAGGSLRLSCAASGRPFSNYAMGWFRQAPGKEREFVTVISWSGGSTYYADSVKGRFTISRDNAKNTVYLQMNSLKPEDTAVYYCAAQFSGASTVVAGTALDYDYWGQGTRVTVSSEPKSSDKTHTCPPCPAPEAAGGPSVFLFPPKPKDTLMISRTPEVTCVVVSVSHEDPEVKFNWYVDGVEVHNAKTKPREEQYNSTYRVVSVLTVLHQDWLNGKEYKCKVSNKALPAPIEKTISKAKGQPREPQVYTLPPSREEMTKNQVSLWCLVKGFYPSDIAVEWESNGQPENNYKTTPPVLDSDGSFFLYSKLTVDKSRWQQGNVFSCSVMHEALHNHYTQKSLSLSPGK
Take B1: the “Cytotox EC50 (pM) E:T 1:1 - 22 hrs” value was found to be 15 pM and the “Cytotox EC50 (pM) E:T 1:20 - 94 hrs” value is 77 pM.

B2: CD33 antibody JL6 combined with Vdelta2 antibody 5D3 (JL6x5D3), Fab (CD33) x VHH (Vδ2) Fc construct (bispecific antibody, human IgG1, lambda, L234A L235A)
heavy: QVQLQESGPGLVKPSETLSLTCTVSGGSISSYYWGWIRQPPGKGLEWIGYIYYSGSTNYNPSLKSRVTISVDTSKNQFSLKLSSVTAADTAVYYCARMWEILGFDPWGQGTLVTVSSASTKGPSVFPLAPSSKSTSGGTAALGCLVKDYFPEPVTVSWNSGALTSGVHTFPAVLQSSGLYSLSSVVTVPSSSLGTQTYICNVNHKPSNTKVDKKVEPKSCDKTHTCPPCPAPEAAGGPSVFLFPPKPKDTLMISRTPEVTCVVVSVSHEDPEVKFNWYVDGVEVHNAKTKPREEQYNSTYRVVSVLTVLHQDWLNGKEYKCKVSNKALPAPIEKTISKAKGQPREPQVYTLPPSREEMTKNQVSLSCAVKGFYPSDIAVEWESNGQPENNYKTTPPVLDSDGSFFLVSKLTVDKSRWQQGNVFSCSVMHEALHNRFTQKSLSLSPGK
light: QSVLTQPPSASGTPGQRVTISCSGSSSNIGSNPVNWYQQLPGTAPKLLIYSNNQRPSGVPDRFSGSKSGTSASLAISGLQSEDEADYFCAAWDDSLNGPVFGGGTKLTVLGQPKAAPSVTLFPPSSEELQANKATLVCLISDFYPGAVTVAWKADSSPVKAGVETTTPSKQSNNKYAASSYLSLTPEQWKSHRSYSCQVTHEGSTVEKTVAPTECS
chain: B1 chain
B2: the “Cytotox EC50 (pM) E:T 1:1 - 22 hrs” value was found to be 63 pM and the “Cytotox EC50 (pM) E:T 1:20 - 94 hrs” value is around 560 pM.

B3: CD33 antibody JL5 combined with Vdelta2 antibody 5D3 (JL5x5D3), Fab (CD33) x VHH (Vδ2) Fc construct (bispecific antibody, human IgG1, lambda, L234A L235A)
heavy: QVQLQESGPGLVKPSETLSLTCSVSGASIRNYYWSWIRQTAGKGLEWLGHIYSTGNIHYNPSLKSRVTMSVDTSNNQFSLKLRSVTAADTAVYYCARDNGAALFDYWGQGTLVTVSSASTKGPSVFPLAPSSKSTSGGTAALGCLVKDYFPEPVTVSWNSGALTSGVHTFPAVLQSSGLYSLSSVVTVPSSSLGTQTYICNVNHKPSNTKVDKKVEPKSCDKTHTCPPCPAPEAAGGPSVFLFPPKPKDTLYITREPEVTCVVVSVSHEDPEVKFNWYVDGVEVHNAKTKPREEQYNSTYRVVSVLTVLHQDWLNGKEYKCKVSNKALPAPIEKTISKAKGQPREPQVYTLPPSREEMTKNQVSLSCAVKGFYPSDIAVEWESNGQPENNYKTTPPVLDSDGSFFLVSKLTVDKSRWQQGNVFSCSVMHEALHNRFTQKSLSLSPGK
light: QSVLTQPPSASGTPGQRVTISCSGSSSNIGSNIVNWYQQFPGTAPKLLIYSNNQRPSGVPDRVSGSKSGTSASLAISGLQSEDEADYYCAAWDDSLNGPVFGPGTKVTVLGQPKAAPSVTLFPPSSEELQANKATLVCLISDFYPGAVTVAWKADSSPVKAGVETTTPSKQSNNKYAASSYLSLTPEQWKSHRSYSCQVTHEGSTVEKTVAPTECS
chain: B1 chain with M164Y, S166T, T168E
Take B3: the “Cytotox EC50 (pM) E:T 1:1 - 22 hrs” value came out at 12 pM and the “Cytotox EC50 (pM) E:T 1:20 - 94 hrs” value came to 45 pM.

B4: CD33 antibody JL2 combined with Vdelta2 antibody 6H4 (JL2x6H4), Fab (CD33) x VHH (Vδ2) Fc construct (bispecific antibody, human IgG1, kappa, L234A L235A)
heavy: EVQLVESGGGLVQPGGSLRLSCVVSGFTFSSYWMTWVRQAPGKGLEWVANIKQDGSERYYVDSVKGRFTISRDSAKNSLYLQMNSLRAEDTAVYYCAREVGYNWNQGGYFDYWGQGTLVTVSSASTKGPSVFPLAPSSKSTSGGTAALGCLVKDYFPEPVTVSWNSGALTSGVHTFPAVLQSSGLYSLSSVVTVPSSSLGTQTYICNVNHKPSNTKVDKKVEPKSCDKTHTCPPCPAPEAAGGPSVFLFPPKPKDTLMISRTPEVTCVVVSVSHEDPEVKFNWYVDGVEVHNAKTKPREEQYNSTYRVVSVLTVLHQDWLNGKEYKCKVSNKALPAPIEKTISKAKGQPREPQVYTLPPSREEMTKNQVSLSCAVKGFYPSDIAVEWESNGQPENNYKTTPPVLDSDGSFFLVSKLTVDKSRWQQGNVFSCSVMHEALHNRFTQKSLSLSPGK
light: DIVMTQSPLSLPVTPGEPASISCRSSQSLLHSDGYNYLDWYLQKSGQSPQLLIYLGSYRASGVPDRFSGSGSGTDFTLKISRVEAEDVGIYYCMQVLQTPWTFGQGTKVEIKRTVAAPSVFIFPPSDEQLKSGTASVVCLLNNFYPREAKVQWKVDNALQSGNSQESVTEQDSKDSTYSLSSTLTLSKADYEKHKVYACEVTHQGLSSPVTKSFNRGEC
chain: EVQLVESGGGLVQAGGSLRLSCAASGRPFSNYGMGWFRQAPGKKREFVAGISWSGGSTDYADSVKGRFTISRDNAKNTVYLQMNSLKPEDTAVYYCAAVFSGAETAYYPSDDYDYWGQGTQVTVSSEPKSSDKTHTCPPCPAPEAAGGPSVFLFPPKPKDTLMISRTPEVTCVVVSVSHEDPEVKFNWYVDGVEVHNAKTKPREEQYNSTYRVVSVLTVLHQDWLNGKEYKCKVSNKALPAPIEKTISKAKGQPREPQVYTLPPSREEMTKNQVSLWCLVKGFYPSDIAVEWESNGQPENNYKTTPPVLDSDGSFFLYSKLTVDKSRWQQGNVFSCSVMHEALHNHYTQKSLSLSPGK
Turning to B4, the “Cytotox EC50 (pM) E:T 1:1 - 22 hrs” value was 4 pM and the “Cytotox EC50 (pM) E:T 1:20 - 94 hrs” value worked out at 20 pM.

B5: CD33 antibody JL2 combined with Vdelta2 antibody 5D3 (JL2x5D3), Fab (CD33) x VHH (Vδ2) Fc construct (bispecific antibody, human IgG1, kappa, L234A L235A)
heavy: B4 heavy
light: B4 light
chain: B1 chain
For B5, the “Cytotox EC50 (pM) E:T 1:1 - 22 hrs” value is 28 pM and the “Cytotox EC50 (pM) E:T 1:20 - 94 hrs” value was around 380 pM.

B6: CD33 antibody JL6 combined with Vdelta2 antibody 6H4 (JL6x6H4), Fab (CD33) x VHH (Vδ2) Fc construct (bispecific antibody, human IgG1, lambda, L234A L235A)
heavy: B2 heavy
light: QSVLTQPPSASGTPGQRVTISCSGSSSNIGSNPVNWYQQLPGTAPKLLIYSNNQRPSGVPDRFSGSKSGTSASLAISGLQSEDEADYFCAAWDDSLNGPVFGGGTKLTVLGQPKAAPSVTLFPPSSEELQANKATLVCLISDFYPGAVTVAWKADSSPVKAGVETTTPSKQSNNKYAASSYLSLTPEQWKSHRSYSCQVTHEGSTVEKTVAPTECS
chain: B4 chain
Turning to B6, the “Cytotox EC50 (pM) E:T 1:1 - 22 hrs” value came to 6.2 pM and the “Cytotox EC50 (pM) E:T 1:20 - 94 hrs” value was determined as 30 pM.

B7: CD33 antibody JL5 combined with Vdelta2 antibody 6H4 (JL5x6H4), Fab (CD33) x VHH (Vδ2) Fc construct (bispecific antibody, human IgG1, lambda, L234A L235A)
heavy: B3 heavy
light: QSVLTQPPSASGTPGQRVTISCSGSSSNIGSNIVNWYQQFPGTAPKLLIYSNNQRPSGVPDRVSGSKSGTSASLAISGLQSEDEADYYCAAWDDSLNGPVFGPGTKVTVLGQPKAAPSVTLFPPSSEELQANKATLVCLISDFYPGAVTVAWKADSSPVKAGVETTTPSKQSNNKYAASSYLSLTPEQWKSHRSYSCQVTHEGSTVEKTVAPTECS
chain: B4 chain with M163Y, S165T, T167E
In the case of B7, the “Cytotox EC50 (pM) E:T 1:1 - 22 hrs” value turned out to be 5.4 pM and the “Cytotox EC50 (pM) E:T 1:20 - 94 hrs” value came to 15 pM.

B8: CD33 antibody JL3 combined with Vdelta2 antibody 6H4 (JL3x6H4), Fab (CD33) x VHH (Vδ2) Fc construct (bispecific antibody, human IgG1, lambda, L234A L235A)
heavy: B1 heavy
light: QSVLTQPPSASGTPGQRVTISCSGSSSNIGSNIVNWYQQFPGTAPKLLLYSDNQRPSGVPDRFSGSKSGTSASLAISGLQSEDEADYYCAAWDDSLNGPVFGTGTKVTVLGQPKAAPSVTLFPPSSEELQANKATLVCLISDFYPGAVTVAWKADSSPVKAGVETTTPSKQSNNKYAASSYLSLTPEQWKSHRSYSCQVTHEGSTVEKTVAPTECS
chain: B4 chain
In the case of B8, the “Cytotox EC50 (pM) E:T 1:1 - 22 hrs” value was determined as 2.5 pM and the “Cytotox EC50 (pM) E:T 1:20 - 94 hrs” value was 12 pM.
